Reference: patent publication US20200222444

Target: Flag-Mettl8 (Flag-tagged human Mettl8, wild type) (UniProt Q9H825)
Sequence (Q9H825 other isoform, or with tags, fused parts or gaps): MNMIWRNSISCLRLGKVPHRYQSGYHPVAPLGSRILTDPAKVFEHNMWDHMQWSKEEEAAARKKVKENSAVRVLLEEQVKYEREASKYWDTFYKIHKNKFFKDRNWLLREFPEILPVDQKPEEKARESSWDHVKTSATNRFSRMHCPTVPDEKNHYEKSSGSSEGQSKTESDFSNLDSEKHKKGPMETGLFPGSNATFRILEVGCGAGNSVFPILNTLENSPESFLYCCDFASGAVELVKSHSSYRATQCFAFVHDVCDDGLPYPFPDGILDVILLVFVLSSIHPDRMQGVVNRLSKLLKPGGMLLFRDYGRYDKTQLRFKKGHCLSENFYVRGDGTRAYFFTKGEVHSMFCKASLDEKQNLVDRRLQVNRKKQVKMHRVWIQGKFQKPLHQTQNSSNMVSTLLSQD

For Endogenous ATM, the “pS/TQ phosphorylation after 10 Gy irradiation (Flag IP, immunoblot)” value was “pS/TQ phosphorylation was detected on wild type Mettl8 upon irradiation”.
